Results as given in US20130053549A1 (UCB, published 2013).

T1: Ox40/mFc (UniProt P43489 29-214)
T1 construct: Bought fusion protein; also called Ox40/mFc (AXXORA 1588)
T1 sequence (looked up): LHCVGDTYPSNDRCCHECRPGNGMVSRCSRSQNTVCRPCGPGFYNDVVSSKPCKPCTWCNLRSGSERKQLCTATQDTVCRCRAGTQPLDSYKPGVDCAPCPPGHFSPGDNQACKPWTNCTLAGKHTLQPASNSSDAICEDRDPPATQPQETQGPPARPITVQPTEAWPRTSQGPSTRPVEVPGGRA

B1: A26Fab 645Fv 5G4S 1189Fv (other)
heavy: EVQLVESGGGLVQPGGSLRLSCAASGFTFTNYGIHWIRQAPGKGLEWVASISPSGGLTYYRDSVKGRFTISRDDAKNSPYLQMNSLRAEDTAVYYCATGGEGIFDYWGQGTLVTVSSASTKGPSVFPLAPSSKSTSGGTAALGCLVKDYFPEPVTVSWNSGALTSGVHTFPAVLQSSGLYSLSSVVTVPSSSLGTQTYICNVNHKPSNTKVDKKVEPKSCSGGGGSGGGGSGGGGSEVQLLESGGGLVQPGGSLRLSCAVSGIDLSNYAINWVRQAPGKCLEWIGIIWASGTTFYATWAKGRFTISRDSTTVYLQMNSLRAEDTAVYYCARTVPGYSTAPYFDLWGQGTLVTVSSGGGGSGGGGSGGGGSGGGGSGGGGSEVQLVESGGGLVQPGGSLRLSCAASGFTFNDYDMAWVRQAPGKCLEWVASITPSGGGTYYRDSVKGRFTISRDNAKNSLYLQMNSLRAEDTAVYYCARHGYTLDYFEYWGQGTMVTVSS
light: DIQMTQSPSSLSASVGDRVTITCRATQSIYNALAWYQQKPGKAPKLLIYNANTLHTGVPSRFSASGSGTDSTLTISSLQPEDFATYYCQQYYDYPLTFGGGTKVEIKRTVAAPSVFIFPPSDEQLKSGTASVVCLLNNFYPREAKVQWKVDNALQSGNSQESVTEQDSKDSTYSLSSTLTLSKADYEKHKVYACEVTHQGLSSPVTKSFNRGECSGGGGSGGGGSGGGGSDIVMTQSPSSVSASVGDRVTITCQSSPSVWSNFLSWYQQKPGKAPKLLIYEASKLTSGVPSRFKGSGSGTDFTLTISSLQPEDFATYYCGGGYSSISDTTFGCGTKVEIKGGGGSGGGGSGGGGSGGGGSGGGGSDIQMTQSPSSLSASVGDRVTITCLASEGISNDLAWYQQKPGKAPKLLIYDATRLQDGVPSRFSGSGSGTDFTLTISSLQPEDFATYYCQQSYKYPWTFGCGTKLEIK
notes: Trispecific Fab-Fv-Fv (OX40, HSA, IL-6); second linker 5xG4S; HEK293 supernatant; also called A26Fab-645Fv-1189Fv; FabFvFv
B2: A26Fab 645Fv 3G4S 1189Fv (other)
heavy: EVQLVESGGGLVQPGGSLRLSCAASGFTFTNYGIHWIRQAPGKGLEWVASISPSGGLTYYRDSVKGRFTISRDDAKNSPYLQMNSLRAEDTAVYYCATGGEGIFDYWGQGTLVTVSSASTKGPSVFPLAPSSKSTSGGTAALGCLVKDYFPEPVTVSWNSGALTSGVHTFPAVLQSSGLYSLSSVVTVPSSSLGTQTYICNVNHKPSNTKVDKKVEPKSCSGGGGSGGGGSGGGGSEVQLLESGGGLVQPGGSLRLSCAVSGIDLSNYAINWVRQAPGKCLEWIGIIWASGTTFYATWAKGRFTISRDSTTVYLQMNSLRAEDTAVYYCARTVPGYSTAPYFDLWGQGTLVTVSSGGGGSGGGGSGGGGSEVQLVESGGGLVQPGGSLRLSCAASGFTFNDYDMAWVRQAPGKCLEWVASITPSGGGTYYRDSVKGRFTISRDNAKNSLYLQMNSLRAEDTAVYYCARHGYTLDYFEYWGQGTMVTVSS
light: DIQMTQSPSSLSASVGDRVTITCRATQSIYNALAWYQQKPGKAPKLLIYNANTLHTGVPSRFSASGSGTDSTLTISSLQPEDFATYYCQQYYDYPLTFGGGTKVEIKRTVAAPSVFIFPPSDEQLKSGTASVVCLLNNFYPREAKVQWKVDNALQSGNSQESVTEQDSKDSTYSLSSTLTLSKADYEKHKVYACEVTHQGLSSPVTKSFNRGECSGGGGSGGGGSGGGGSDIVMTQSPSSVSASVGDRVTITCQSSPSVWSNFLSWYQQKPGKAPKLLIYEASKLTSGVPSRFKGSGSGTDFTLTISSLQPEDFATYYCGGGYSSISDTTFGCGTKVEIKGGGGSGGGGSGGGGSDIQMTQSPSSLSASVGDRVTITCLASEGISNDLAWYQQKPGKAPKLLIYDATRLQDGVPSRFSGSGSGTDFTLTISSLQPEDFATYYCQQSYKYPWTFGCGTKLEIK
notes: Trispecific Fab-Fv-Fv (OX40, HSA, IL-6); second linker 3xG4S; HEK293 supernatant; also called A26Fab-645Fv-1189Fv; FabFvFv
B3: A26Fab 645Fv 2G4S 1189Fv (other)
heavy: EVQLVESGGGLVQPGGSLRLSCAASGFTFTNYGIHWIRQAPGKGLEWVASISPSGGLTYYRDSVKGRFTISRDDAKNSPYLQMNSLRAEDTAVYYCATGGEGIFDYWGQGTLVTVSSASTKGPSVFPLAPSSKSTSGGTAALGCLVKDYFPEPVTVSWNSGALTSGVHTFPAVLQSSGLYSLSSVVTVPSSSLGTQTYICNVNHKPSNTKVDKKVEPKSCSGGGGSGGGGSGGGGSEVQLLESGGGLVQPGGSLRLSCAVSGIDLSNYAINWVRQAPGKCLEWIGIIWASGTTFYATWAKGRFTISRDSTTVYLQMNSLRAEDTAVYYCARTVPGYSTAPYFDLWGQGTLVTVSSGGGGSGGGGSEVQLVESGGGLVQPGGSLRLSCAASGFTFNDYDMAWVRQAPGKCLEWVASITPSGGGTYYRDSVKGRFTISRDNAKNSLYLQMNSLRAEDTAVYYCARHGYTLDYFEYWGQGTMVTVSS
light: DIQMTQSPSSLSASVGDRVTITCRATQSIYNALAWYQQKPGKAPKLLIYNANTLHTGVPSRFSASGSGTDSTLTISSLQPEDFATYYCQQYYDYPLTFGGGTKVEIKRTVAAPSVFIFPPSDEQLKSGTASVVCLLNNFYPREAKVQWKVDNALQSGNSQESVTEQDSKDSTYSLSSTLTLSKADYEKHKVYACEVTHQGLSSPVTKSFNRGECSGGGGSGGGGSGGGGSDIVMTQSPSSVSASVGDRVTITCQSSPSVWSNFLSWYQQKPGKAPKLLIYEASKLTSGVPSRFKGSGSGTDFTLTISSLQPEDFATYYCGGGYSSISDTTFGCGTKVEIKGGGGSGGGGSDIQMTQSPSSLSASVGDRVTITCLASEGISNDLAWYQQKPGKAPKLLIYDATRLQDGVPSRFSGSGSGTDFTLTISSLQPEDFATYYCQQSYKYPWTFGCGTKLEIK
notes: Trispecific Fab-Fv-Fv (OX40, HSA, IL-6); second linker 2xG4S; HEK293 supernatant; also called A26Fab-645Fv-1189Fv; FabFvFv
B4: A26Fab 645Fv 4G4S 1189Fv (other)
heavy: EVQLVESGGGLVQPGGSLRLSCAASGFTFTNYGIHWIRQAPGKGLEWVASISPSGGLTYYRDSVKGRFTISRDDAKNSPYLQMNSLRAEDTAVYYCATGGEGIFDYWGQGTLVTVSSASTKGPSVFPLAPSSKSTSGGTAALGCLVKDYFPEPVTVSWNSGALTSGVHTFPAVLQSSGLYSLSSVVTVPSSSLGTQTYICNVNHKPSNTKVDKKVEPKSCSGGGGSGGGGSGGGGSEVQLLESGGGLVQPGGSLRLSCAVSGIDLSNYAINWVRQAPGKCLEWIGIIWASGTTFYATWAKGRFTISRDSTTVYLQMNSLRAEDTAVYYCARTVPGYSTAPYFDLWGQGTLVTVSSGGGGSGGGGSGGGGSGGGGSEVQLVESGGGLVQPGGSLRLSCAASGFTFNDYDMAWVRQAPGKCLEWVASITPSGGGTYYRDSVKGRFTISRDNAKNSLYLQMNSLRAEDTAVYYCARHGYTLDYFEYWGQGTMVTVSS
light: DIQMTQSPSSLSASVGDRVTITCRATQSIYNALAWYQQKPGKAPKLLIYNANTLHTGVPSRFSASGSGTDSTLTISSLQPEDFATYYCQQYYDYPLTFGGGTKVEIKRTVAAPSVFIFPPSDEQLKSGTASVVCLLNNFYPREAKVQWKVDNALQSGNSQESVTEQDSKDSTYSLSSTLTLSKADYEKHKVYACEVTHQGLSSPVTKSFNRGECSGGGGSGGGGSGGGGSDIVMTQSPSSVSASVGDRVTITCQSSPSVWSNFLSWYQQKPGKAPKLLIYEASKLTSGVPSRFKGSGSGTDFTLTISSLQPEDFATYYCGGGYSSISDTTFGCGTKVEIKGGGGSGGGGSGGGGSGGGGSDIQMTQSPSSLSASVGDRVTITCLASEGISNDLAWYQQKPGKAPKLLIYDATRLQDGVPSRFSGSGSGTDFTLTISSLQPEDFATYYCQQSYKYPWTFGCGTKLEIK
notes: Trispecific Fab-Fv-Fv (OX40, HSA, IL-6); second linker 4xG4S; HEK293 supernatant; also called A26Fab-645Fv-1189Fv; FabFvFv
B5: A26Fab-(3xG4S)-645dsFv-(3xG4S)-870dsFv (other)
heavy: EVQLVESGGGLVQPGGSLRLSCAASGFTFTNYGIHWIRQAPGKGLEWVASISPSGGLTYYRDSVKGRFTISRDDAKNSPYLQMNSLRAEDTAVYYCATGGEGIFDYWGQGTLVTVSSASTKGPSVFPLAPSSKSTSGGTAALGCLVKDYFPEPVTVSWNSGALTSGVHTFPAVLQSSGLYSLSSVVTVPSSSLGTQTYICNVNHKPSNTKVDKKVEPKSCSGGGGSGGGGSGGGGSEVQLLESGGGLVQPGGSLRLSCAVSGIDLSNYAINWVRQAPGKCLEWIGIIWASGTTFYATWAKGRFTISRDSTTVYLQMNSLRAEDTAVYYCARTVPGYSTAPYFDLWGQGTLVTVSSGGGGSGGGGSGGGGSEVQLVESGGGLVQPGGSLRLSCAASGYVFTDYGMNWVRQAPGKCLEWMGWINTYIGEPIYADSVKGRFTFSLDTSKSTAYLQMNSLRAEDTAVYYCARGYRSYAMDYWGQGTLVTVSS
light: DIQMTQSPSSLSASVGDRVTITCRATQSIYNALAWYQQKPGKAPKLLIYNANTLHTGVPSRFSASGSGTDSTLTISSLQPEDFATYYCQQYYDYPLTFGGGTKVEIKRTVAAPSVFIFPPSDEQLKSGTASVVCLLNNFYPREAKVQWKVDNALQSGNSQESVTEQDSKDSTYSLSSTLTLSKADYEKHKVYACEVTHQGLSSPVTKSFNRGECSGGGGSGGGGSGGGGSDIVMTQSPSSVSASVGDRVTITCQSSPSVWSNFLSWYQQKPGKAPKLLIYEASKLTSGVPSRFKGSGSGTDFTLTISSLQPEDFATYYCGGGYSSISDTTFGCGTKVEIKGGGGSGGGGSGGGGSDIQMTQSPSSLSASVGDRVTITCKASQNVGTNVAWYQQKPGKAPKALIYSASFLYSGVPYRFSGSGSGTDFTLTISSLQPEDFATYYCQQYNIYPLTFGCGTKVEIKR
notes: Trispecific Fab-Fv-Fv (OX40, HSA, TNF); terminal 870 Fv with a disulfide (+DS read as dsFv); HEK293 supernatant; also called A26-645-870+DS; A26Fab-645Fv-652/870Fv

How the values were obtained:
human serum albumin [1] = target: T2, human serum albumin (human, UniProt P02768 25-609); test: SPR, Biacore T100; sample captured by anti-human CH1 antibody, HSA as analyte
T2 construct: Bought protein; also called HSA
Description: (§1) Covalent immobilisation of the capture antibody was achieved by standard amine coupling chemistry.
(§2) After each cycle, the capture surface was regenerated with 2×1 min injections of 40 mM HCl followed by 30 s of 5 mM NaOH. The flow rates used were 10 μl/min for capture, 30 μl/min for association and dissociation phases, and 10 μl/min for regeneration.
(§3) A blank flow-cell was used for reference subtraction and buffer-blank injections were included to subtract instrument noise and drift.

IL-6 [2] = target: T3, IL-6 (UniProt P05231 30-212, limits assumed); test: SPR, Biacore T100; sample captured by anti-human CH1 antibody, IL-6 as analyte
Description: as §1, §2, §3

human serum albumin [3] = target: T2, human serum albumin; test: SPR, Biacore T100; sample captured by anti-human CH1 antibody, HSA as analyte, 1:1 fit
Description: as §1, §2
(§4) Kinetic parameters were determined by simultaneous global-fitting of the resulting sensorgrams to a standard 1:1 binding model using Biacore T100 Evaluation Software v2.0.1.

IL-6 [4] = target: T3, IL-6; test: SPR, Biacore T100; sample captured by anti-human CH1 antibody, IL-6 as analyte, 1:1 fit
Description: as §1, §3, §4

human serum albumin [5] = target: T2, human serum albumin; test: SPR, Biacore 3000; construct captured by anti-human CH1 antibody, 50 nM HSA alone
Description: as §1, §2

TNF = target: T4, TNF (human, UniProt P01375 77-233); test: SPR, Biacore 3000; sample captured by anti-human CH1 antibody, TNF as analyte
T4 construct: also called TNF (Strathmann hTNFa); hTNFa
Description: as §1, §2
Kinetic parameters were determined by simultaneous global-fitting of the resulting sensorgrams to a standard 1:1 binding model using Biacore 3000 Evaluation Software v3.2

Ox40/mFc = target: T1, Ox40/mFc; test: SPR, Biacore 3000; construct captured by anti-human CH1 antibody, 20 nM Ox40/mFc alone
Description: as §1, §2

Binder	Stoichiometry (human serum albumin [1])	Stoichiometry (IL-6 [2])	Kd (human serum albumin [3])	koff (human serum albumin [3])	kon (human serum albumin [3])	Kd (IL-6 [4])	koff (IL-6 [4])	kon (IL-6 [4])	Response RU (human serum albumin [5])	Affinity (fold loss against the parent) (TNF)	Stoichiometry (TNF)	Response RU (Ox40/mFc)
B1	0.39	0.69	12.2 nM	0.000393 s⁻¹	32400 M⁻¹ s⁻¹	0.48 nM	0.000768 s⁻¹	1.61e+06 M⁻¹ s⁻¹				
B2	0.39	0.68	11.6 nM	0.000392 s⁻¹	33800 M⁻¹ s⁻¹	0.84 nM	0.000737 s⁻¹	874000 M⁻¹ s⁻¹				
B3	0.4	0.47	11.6 nM	0.000389 s⁻¹	33700 M⁻¹ s⁻¹	0.78 nM	0.000747 s⁻¹	959000 M⁻¹ s⁻¹				
B4	0.4	0.66	11.7 nM	0.000396 s⁻¹	33900 M⁻¹ s⁻¹	0.52 nM	0.000729 s⁻¹	1.41e+06 M⁻¹ s⁻¹				
B5									10 RU	2 fold	0.42	32 RU
